Source: patent publication US20220275059A1 (HARBOUR ANTIBODIES, published 2022)
Substitutions are numbered along the chain they refer to. “And” between values parts separate entries of the source, which are not always exact repeats. Equal values may be shown once.

T1: MERS-S1^A domain (MERS-CoV EMC isolate, UniProt K9N5Q8 19-357)
T1 sequence: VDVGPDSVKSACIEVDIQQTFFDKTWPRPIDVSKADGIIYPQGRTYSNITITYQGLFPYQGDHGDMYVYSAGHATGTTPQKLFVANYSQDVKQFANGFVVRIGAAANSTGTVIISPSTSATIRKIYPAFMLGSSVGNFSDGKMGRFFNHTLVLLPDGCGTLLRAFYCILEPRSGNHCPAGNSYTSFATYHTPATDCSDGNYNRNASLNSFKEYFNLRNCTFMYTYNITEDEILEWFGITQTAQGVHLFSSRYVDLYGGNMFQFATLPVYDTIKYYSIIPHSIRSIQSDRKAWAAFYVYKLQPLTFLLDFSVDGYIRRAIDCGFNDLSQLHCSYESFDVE

B1: 7.7g6 (antibody, V domains shown)
VH: QVQLVQTGAEVKKPGSSVKVSCKASGGTFSIYAISWVRQAPRQGLEWMGGIIPIFGTANYAQKFQGRVTITADKSTNTAYMELSRLRSEDTAVYYCAREGDDVLVPTSRGFFDYWGQGTLVTVSS
VL: not shown
B2: 1.10f3 (antibody, V domains shown)
VH: QVQLVESGGGVVQPGRSLRLSCKASGFTFRGYGMHWVRQAPGKGLEWVTVIWHDASNKYYVDSVKGRFSISRDNSKNTLYLQMNSLRAEDTAVYYCARDAGLSFDIWGQGTMVTVSS
VL: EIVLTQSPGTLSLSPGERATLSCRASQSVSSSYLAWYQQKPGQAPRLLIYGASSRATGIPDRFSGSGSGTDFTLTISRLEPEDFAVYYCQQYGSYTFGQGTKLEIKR
B3: 1.2g5 (antibody, V domains shown)
VH: QVQLVQSGAEVKKPGSSVKVSCKASGGTFSTYAISWVRQAPGQGLEWMGGIIPIFGTANYAQKFQGRVTIIADKSTNTAYMDLSSLRSEDTAVYYCAREGNLGYDVVTGYSYFVYWGQGTLVTVSS
VL: EIVLTQSPGTLSLSPGERATLSCRASQSVSSSYLAWYQQKPDQVPRLLIYGTSSRATGIPDRFSGSGSGTDFTLTISRLEPEDFAVYYCQQYGRSLTFGGGTKVEIKR
B4: 1.6f9 (antibody, V domains shown)
VH: QVQLVQSGAEVKKPGSSVKVSCKASGGAFSAYVITWVRQAPGQGLEWMGGIIPVFGTAHYAQKFQGRVTITADKSTSTAFMELSSLRSEDTAVYYCAREGDIEVVLAGRGYFDYWGQGTLVTVSS
VL: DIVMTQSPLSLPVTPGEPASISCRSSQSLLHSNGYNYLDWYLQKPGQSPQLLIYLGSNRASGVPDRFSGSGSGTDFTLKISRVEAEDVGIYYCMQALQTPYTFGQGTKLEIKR
B5: 5.5e11 (antibody, V domains shown)
VH: QVQLVQSGAEVKKPGSSVKISCKASGGTFSTHAFTWVRQAPGQGLEWIGRIIPIFDTPKYAQKFQGRVTIAADISTSTVFMELSSLRSEDTAVFYCAREGYYISGSYRDAFDIWGQGTMVTVSS
VL: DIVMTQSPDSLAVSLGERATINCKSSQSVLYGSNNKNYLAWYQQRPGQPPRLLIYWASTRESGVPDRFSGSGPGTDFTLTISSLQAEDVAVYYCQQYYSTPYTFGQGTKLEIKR
B6: 5.2b7 (antibody, V domains shown)
VH: QVQLVESGGGVVQPGRSLRLSCAASGFTFSSDGMHWVRQAPGKGLEWVAVIWFDGSNKYYADSVKGRFTISRDNSKNTMYLQMNSLRAEDTAVYYCTRDRGITMGRGRYYYYYGMDVWGQGTTVTVSS
VL: EIVMTQSPATLSVSPGERATLSCRASQSVGSNLAWYQQKPGQAPRLLIYGASTRATGIPARFSGSGSGTEFTLTISSLQSEDFAVYYCQQYNNWPLTFGGGTKVEMKR
B7: 7.9g10 (antibody, V domains shown)
VH: QVQLVQSGAEVKKPGSSVKVSCKASGGTFSSYAISWVRQAPGQGLEWMGGIIPIFGTANYAQKFQGRVTITADKSTNTAYMELSSLRSEDTAVYYCAREDITMVRGVITNYWYFDLWGRGTLVTVSS
VL: DIQMTQSPSSLSASVGDRVTITCRASQDISNYLAWYQQKPGKVPKLLIYAASTLQSGVPSRFSGSGSGTDFTLTISSLQPEDVATYYCQKSNNAPLTFGGGTKVEIKR
B8: 7.2h5 (antibody, V domains shown)
VH: QVQLVQSGAEVKKPGSSVKVSCKASGGTFSSYAISWVRQAPGQGLEWMGGIIPIFGTVKNAQKFQGRVTITADKSTGTAYMELSSLRSEDTAVYYCARDHYYDSNDYYWYFDLWGRGTLVTVSS
VL: B6 VL with G30S, Q38K, A55V, M106I
B9: 1.10e9 (antibody, V domains shown)
VH: QVQLQQSGPGLVKPSQTLSLTCAISGDSVSSNSAAWNWIRQSPSRGLEWLGRTYYRSKWYNDYAVSVKSRITINPNTSKNQFSLQLNPVTPEDTAVYFCAREWFGEGYFDLWGRGTLVTVSS
VL: EIVMTQSPATLSVSPGESATLSCRASQTIYSNLAWYQRKPGQAPRLLIYRASTRATGIPARFSGSGSGTEFTLTISSLQSEDFAVYCCQQFNNWPYTFGQGTKLEIKR
B10: 1.3g2 (antibody, V domains shown)
VH: B3 VH
VL: B3 VL
B11: 1.6e1 (antibody, V domains shown)
VH: B4 VH with V33A, T35S, V54I, H59N, K74T, F80Y, G108A, Y111F
VL: B7 VL with D28G, S91Y, N93S, L96W, G100Q
B12: 5.11h8 (antibody, V domains shown)
VH: B4 VH with V33A, T35D, V54I, F64L, F80Y, I102S, E103G, V104L, G108A, Y111F
VL: B7 VL with D28G, S91Y, N93S, L96W, G100Q
B13: 1.13a9 (antibody, V domains shown)
VH: EVQLVESGGGLVQPGGSLRLSCAASGFTFSNYWMTWVRQAPGKGLEWVANIKEDGSEKYYVDSVKGRFTLSRDNAKNSLYLQMNSLRAEDTAVYYCAKEGALLWFGVLRPRAFDIWGQGTMVTVSS
VL: DIVMTQSPLSLPVTPGEPASISCRSSQSLLHSNGYNYLDWYLQNPGQSPHLLIYLASNRASGVPDRFSGSGSGTDFTLKISRVEAADVGVYYCMQALQTPYTFGQGTKLEIKR
B14: 1.17f10 (antibody, V domains shown)
VH: QVQLVESGGGVVQPGRSLRLSCAASGFTFSKYGMHWVRQAPGKGLEWVANIGYDGSDKYYADSVKGRFTISRDNSKNMLYLQMNSLRAEDTAVYFCARGGWIDDYYYGLDVWGQGTTVTVSS
VL: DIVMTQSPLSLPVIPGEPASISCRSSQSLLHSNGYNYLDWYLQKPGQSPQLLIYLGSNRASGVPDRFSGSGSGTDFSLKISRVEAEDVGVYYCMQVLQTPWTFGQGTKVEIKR
B15: 1.12g2 (antibody, V domains shown)
VH: B14 VH with K31S, N50V, G52C, A61T, K65R, M78T, A88V, V93M, L109M
VL: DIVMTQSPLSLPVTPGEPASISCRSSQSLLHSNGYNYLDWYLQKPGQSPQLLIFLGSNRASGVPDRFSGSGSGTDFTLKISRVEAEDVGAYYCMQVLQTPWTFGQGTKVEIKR
B16: 1.5d6 (antibody, V domains shown)
VH: B14 VH with K31R, N50V, D57N, M78T, Y80S, F95Y, I102N
VL: B13 VL with T14I, N44K, H50Q, A56G, R82I, A86E, V88A, A96V, Y101W, L109V

Target: MERS-S1^B domain (receptor binding domain) (MERS-CoV EMC isolate, UniProt K9N5Q8 358-588)
Assay: ELISA on coated MERS-S1^B, OD450 [D]

Binder | EC50 (read off the curve) | binding result
B1 | ~0.02 µg/mL | –
B2 | – | no binding (tested: about 5x10^5 ng/ml)

Target: T1, MERS-S1^A domain
Assay: ELISA on coated MERS-S1^A, OD450 [D]

Binder | binding result | EC50 (read off the curve)
B1 | no binding (tested: about 5x10^5 ng/ml) | –
B2 | – | ~0.07 µg/mL
B3 | no binding (tested: about 5x10^5 ng/ml) | –
B4 | no binding (tested: about 5x10^5 ng/ml) | –

Target: T2, MERS-S on pseudotyped VSV particles (MERS-S carrying a 16-a.a. cytoplasmic tail truncation) (MERS-CoV, UniProt K9N5Q8 18-1337)
Assay: cell-based or functional assay

Binder | IC50, neutralization of MERS-S pseudovirus infectivity (H2L2) | IC50, neutralization of MERS-S pseudovirus infectivity (human IgG1)
B1 | ~0.00011 µg/mL | ~0.02 µg/mL
B5 | ~0.0017 µg/mL | –
B6 | ~0.00081 µg/mL | –
B3 | ~0.00062 µg/mL | ~0.007 µg/mL
B4 | ~0.00038 µg/mL | ~0.019 µg/mL

Target: T2, MERS-S on pseudotyped VSV particles …
Assay: cell-based or functional assay
Remark: another data set of the same source

Binder | IC50, neutralisation of MERS-S VSV pseudovirus on Vero cells
B1 | 0.001 µg/ml and 0.007 nM
B2 | > 10 µg/ml and > 66.7 nM
B3 | 0.002 µg/ml and 0.013 nM
B4 | 0.006 µg/ml and 0.04 nM

Target: T3, MERS-CoV S S1 subunit (MERS-S1) (MERS-CoV EMC isolate, UniProt K9N5Q8 19-748)
Assay: ForteBio Octet kinetic measurement (FIG. 3A)

Binder | Kd
B1 | ~0.36 nM
B5 | ~0.3 nM
B7 | ~0.2 nM
B6 | ~0.36 nM
B8 | ~0.36 nM
B9 | ~0.44 nM
B2 | ~4.8 nM
B3 | ~0.081 nM
B10 | ~1.1 nM
B4 | ~0.53 nM
B11 | ~0.11 nM
B12 | ~0.68 nM

Target: T3, MERS-CoV S S1 subunit (MERS-S1)
Assay: ELISA on coated MERS-S1, OD450 [D]

Binder | EC50 (read off the curve)
B1 | ~0.02 µg/mL
B2 | ~0.1 µg/mL

Target: SARS-CoV spike protein (SARS-CoV, UniProt P59594 15-1182)
Assay: ELISA on SARS Secto

Binder | binding result
B13 | no binding (tested: 25.00 (no unit printed))
B14 | no binding (tested: 25.00 (no unit printed))
B15 | no binding (tested: 25.00 (no unit printed))
B16 | no binding (tested: 25.00 (no unit printed))
